Results on 3 molecules are retold here after patent US20040054158A1 (GENETICS INSTITUTE, published 2004).

The labels stand for the following.
T1: mouse B7-1 on cells (WEHI 231, undifferentiated ES cells) (mouse, UniProt Q00609 38-306)
T1 construct: whole, on cells; also called CD80
T1 sequence (looked up): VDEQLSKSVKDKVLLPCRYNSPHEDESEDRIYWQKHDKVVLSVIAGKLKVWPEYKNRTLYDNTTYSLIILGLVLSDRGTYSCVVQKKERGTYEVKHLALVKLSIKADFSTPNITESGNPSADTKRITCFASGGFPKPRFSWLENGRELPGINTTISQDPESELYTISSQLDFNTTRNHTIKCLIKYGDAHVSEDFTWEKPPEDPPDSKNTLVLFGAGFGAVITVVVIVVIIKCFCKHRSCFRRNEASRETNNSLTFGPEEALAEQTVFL

T2: mouse B7-2 on WEHI 231 cells (mouse, UniProt P42082 24-309)
T2 construct: whole, on cells; also called CD86
T2 sequence (looked up): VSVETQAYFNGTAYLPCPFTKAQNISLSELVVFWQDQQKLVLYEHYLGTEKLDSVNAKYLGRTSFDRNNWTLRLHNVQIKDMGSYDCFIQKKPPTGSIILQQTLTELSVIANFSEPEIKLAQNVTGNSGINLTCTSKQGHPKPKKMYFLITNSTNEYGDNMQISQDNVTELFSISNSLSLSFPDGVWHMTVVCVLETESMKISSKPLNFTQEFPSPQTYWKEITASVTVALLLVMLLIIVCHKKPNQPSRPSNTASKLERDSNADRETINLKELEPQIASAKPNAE

T3: murine GL50-1 (mGL50-1) expressed on transfected COS cells (mouse, UniProt Q9JHJ8 47-322)
T3 construct: 322 amino acid protein
T3 sequence: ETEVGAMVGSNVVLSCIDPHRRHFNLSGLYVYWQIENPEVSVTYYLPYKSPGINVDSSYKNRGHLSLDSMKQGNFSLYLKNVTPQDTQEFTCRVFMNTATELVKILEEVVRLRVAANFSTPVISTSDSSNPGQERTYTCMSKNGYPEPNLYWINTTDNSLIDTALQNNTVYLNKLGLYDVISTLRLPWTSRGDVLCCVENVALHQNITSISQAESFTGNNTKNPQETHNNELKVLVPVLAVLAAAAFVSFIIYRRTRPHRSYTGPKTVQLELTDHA

T4: murine GL50-2 (mGL50-2) expressed on transfected COS cells (mouse, UniProt Q9JHJ8 44-320)
T4 construct: Alternatively spliced form of 347 residues; also called mGL50-B
T4 sequence: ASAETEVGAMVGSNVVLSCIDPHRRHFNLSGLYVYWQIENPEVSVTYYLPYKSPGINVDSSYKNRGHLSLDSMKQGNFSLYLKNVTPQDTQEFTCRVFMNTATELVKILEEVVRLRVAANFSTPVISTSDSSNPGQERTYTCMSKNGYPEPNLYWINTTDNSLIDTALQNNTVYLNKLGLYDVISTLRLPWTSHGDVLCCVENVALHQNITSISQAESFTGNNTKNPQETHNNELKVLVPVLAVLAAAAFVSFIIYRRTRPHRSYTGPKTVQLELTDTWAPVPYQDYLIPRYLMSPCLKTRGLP

T5: CD28-Ig (mouse, UniProt P31041 20-150)
T5 construct: not shown: Ig part not described
T5 sequence (looked up): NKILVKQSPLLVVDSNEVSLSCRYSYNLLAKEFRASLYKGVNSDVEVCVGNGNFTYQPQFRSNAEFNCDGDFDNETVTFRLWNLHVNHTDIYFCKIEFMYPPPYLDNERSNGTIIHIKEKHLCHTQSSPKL

B1: mICOS-mIgG2am (Fc fusion)
chain: EINGSADHRMFSFHNGGVQISCKYPETVQQLKMRLFREREVLCELTKTKGSGNAVSIKNPMLCLYHLSNNSVSFFLNNPDSSQGSYYFCSLSIFDPPPFQERNLSGGYLHIYESQLCCQLKLEPRGPTIKPCPPCKCPAPNLEGGPSVFIFPPKIKDVLMISLSPIVTCVVVDVSEDDPDVQISWFVNNVEVHTAQTQTHREDYNSTLRVVSALPIQHQDWMSGKAFACAVNNKDLPAPIERTISKPKGSVRAPQVYVLPPPEEEMTKKQVTLTCMVTDFMPEDIYVEWTNNGKTELNYKNTEPVLDSDGSYFMYSKLRVEKKNWVERNSYSCSVVHEGLHNHHTTKSFSRTPGK
notes: Fusion of mouse ICOS with a mouse IgG2a domain mutated to reduce effector function; also called ICOS-Ig; ICOS Ig
B2: hICOS-mIgG2am (Fc fusion)
chain: EINGSANYEMFIFHNGGVQILCKYPDIVQQFKMQLLKGGQILCDLTKTKGSGNTVSIKSLKFCHSQLSNNSVSFFLYNLDHSHANYYFCNLSIFDPPPFKVTLTGGYLHIYESQLCCQLKFEPRGPTIKPCPPCKCPAPNLEGGPSVFIFPPKIKDVLMISLSPIVTCVVVDVSEDDPDVQISWFVNNVEVHTAQTQTHREDYNSTLRVVSALPIQHQDWMSGKAFACAVNNKDLPAPIERTISKPKGSVRAPQVYVLPPPEEEMTKKQVTLTCMVTDFMPEDIYVEWTNNGKTELNYKNTEPVLDSDGSYFMYSKLRVEKKNWVERNSYSCSVVHEGLHNHHTTKSFSRTPGK
notes: Fusion of human ICOS with the mutated mouse IgG2a domain
B3: human DAP-12 expressed on transfected COS cells (other, UniProt O43914 22-113, looked up)
chain: LRPVQAQAQSDCSCSTVSPGVLAGIVMGDLVLTVLIALAVYFLGRLVPRGRGAAEAATRKQRITETESPYQELQGQRSDVYSDLNTQRPYYK
notes: whole, on cells; Negative control transfectant

The target in assay [1] is T1, mouse B7-1 on cells (WEHI 231, …). The assay can be described thus: flow cytometry on WEHI 231 cells with blocking anti B7-1 and B7-2 antibodies. In general terms: In flow cytometry, cells or beads pass a laser one at a time.
Assay [2] deals with T2, mouse B7-2 on WEHI 231 cells. The assay is described as above.
In assay [3] the target is B3. The assay can be described thus: flow cytometry on transfected COS cells.
Assay [4] deals with T3, murine GL50-1 (mGL50-1) expressed on …. The assay can be described thus: flow cytometry on transfected COS cells.
Assay [5] has as its target T4, murine GL50-2 (mGL50-2) expressed on …. The assay can be described thus: flow cytometry on transfected COS cells.
For assay [6], the target named is T5, CD28-Ig. The assay can be described thus: flow cytometry on transfected COS cells.

As for B1, the figures for the binding result in assay [1], in assay [2] and in assay [3] were “no binding”, “no binding” and “no binding (tested: 5 µg/ml of fusion protein)”, respectively.
Consider B2, for which the binding result in assay [4] and in assay [5] was “binds” throughout.
On to B3, for which, in assay [6], the binding result is reported as “no binding (tested: 5 µg/ml of fusion protein)”.
